Test results reported in IntAct's records for PubMed 19424970.

B1: UL16-binding protein 2 (Homo sapiens), Q9BZM5 (parent)
chain: MAAAAATKILLCLPLLLLLSGWSRAGRADPHSLCYDITVIPKFRPGPRWCAVQGQVDEKTFLHYDCGNKTVTPVSPLGKKLNVTTAWKAQNPVLREVVDILTEQLRDIQLENYTPKEPLTLQARMSCEQKAEGHSSGSWQFSFDGQIFLLFDSEKRMWTTVHPGARKMKEKWENDKVVAMSFHYFSMGDCIGWLEDFLMGMDSTLEPSAGAPLAMSSGTTQLRATATTLILCCLLIILPCFILPGI

Variants of: B1
Settings: with nkg2d_human KLRK1, P26718
Chain of nkg2d_human KLRK1, P26718 (P26718 whole entry): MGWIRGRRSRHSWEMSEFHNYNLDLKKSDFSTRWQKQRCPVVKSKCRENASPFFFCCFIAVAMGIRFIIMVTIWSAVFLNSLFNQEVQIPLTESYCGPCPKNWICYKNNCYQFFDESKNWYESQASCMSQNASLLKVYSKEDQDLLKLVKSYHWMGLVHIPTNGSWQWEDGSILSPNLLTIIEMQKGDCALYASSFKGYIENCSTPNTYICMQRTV

effect of a mutation on the interaction | Variant
decreasing interaction strength | MAAAAATKILLCLPLLLLLSGWSRAGRADPHSLCYDITVIPKFRPGPRWCAVQGQVDEKTFLHYDCGNKTVTPVSPLGKKLNVTTAWKAQNPVLREVVDILTEQLRDIQLENYTPKEPLTLQARMSCEQKAEGHSSGSWQLSFDGQIFLLFDSEKRMWTTVHPGARKMKEKWENDKVVAMSFHYFSMGDCIGWLEDFLMGMDSTLEPSAGAPLAMSSGTTQLRATATTLILCCLLIILPCFILPGI [F141L]
